{
  "source": "paper PMC9712689",
  "about": "(Communications Biology, 2022)",
  "test_in_all_cases": "MST",
  "conditions_in_all_cases": "both partners purified",
  "key": {"MltA": {"biological_target": "T1, MltA (P. aeruginosa PAO1, UniProt Q9I4B6 1-385)", "T1 sequence (looked up)": "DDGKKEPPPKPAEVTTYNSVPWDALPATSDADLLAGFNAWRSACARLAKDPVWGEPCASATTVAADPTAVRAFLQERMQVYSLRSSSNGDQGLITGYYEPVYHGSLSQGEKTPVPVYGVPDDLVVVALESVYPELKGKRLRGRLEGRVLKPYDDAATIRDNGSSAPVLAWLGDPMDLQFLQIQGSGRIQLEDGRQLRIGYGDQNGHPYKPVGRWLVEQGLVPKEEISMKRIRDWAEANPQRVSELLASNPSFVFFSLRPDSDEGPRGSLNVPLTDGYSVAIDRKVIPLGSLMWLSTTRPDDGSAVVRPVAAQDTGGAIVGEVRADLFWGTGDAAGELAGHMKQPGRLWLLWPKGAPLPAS"}, "PBP1a": {"biological_target": "PBP1a (P. aeruginosa PAO1, UniProt Q07806 27-822)", "sequence (Q07806 27-822)": "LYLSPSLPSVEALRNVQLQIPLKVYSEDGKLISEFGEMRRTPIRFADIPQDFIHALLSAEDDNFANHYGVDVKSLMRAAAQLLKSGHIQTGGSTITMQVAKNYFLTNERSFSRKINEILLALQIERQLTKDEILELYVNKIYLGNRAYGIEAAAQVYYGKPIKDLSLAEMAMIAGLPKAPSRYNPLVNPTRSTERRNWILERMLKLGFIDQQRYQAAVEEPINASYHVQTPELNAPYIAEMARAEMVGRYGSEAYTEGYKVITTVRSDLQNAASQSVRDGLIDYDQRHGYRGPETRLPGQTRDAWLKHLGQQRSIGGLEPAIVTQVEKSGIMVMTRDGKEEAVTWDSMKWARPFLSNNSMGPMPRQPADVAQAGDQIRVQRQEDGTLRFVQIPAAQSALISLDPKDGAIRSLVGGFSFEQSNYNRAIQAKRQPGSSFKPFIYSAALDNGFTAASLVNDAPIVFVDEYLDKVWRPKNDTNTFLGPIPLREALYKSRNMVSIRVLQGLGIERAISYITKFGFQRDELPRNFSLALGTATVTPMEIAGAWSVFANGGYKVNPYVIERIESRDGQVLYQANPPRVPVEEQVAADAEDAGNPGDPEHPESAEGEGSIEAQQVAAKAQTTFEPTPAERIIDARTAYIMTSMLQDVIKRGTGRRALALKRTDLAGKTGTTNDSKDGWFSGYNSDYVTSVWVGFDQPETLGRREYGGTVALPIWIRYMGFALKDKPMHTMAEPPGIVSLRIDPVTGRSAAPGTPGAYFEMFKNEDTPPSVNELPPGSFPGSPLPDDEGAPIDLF"}, "MltB": {"biological_target": "T2, MltB (P. aeruginosa PAO1, UniProt Q9HVX3 1-367)", "T2 sequence (looked up)": "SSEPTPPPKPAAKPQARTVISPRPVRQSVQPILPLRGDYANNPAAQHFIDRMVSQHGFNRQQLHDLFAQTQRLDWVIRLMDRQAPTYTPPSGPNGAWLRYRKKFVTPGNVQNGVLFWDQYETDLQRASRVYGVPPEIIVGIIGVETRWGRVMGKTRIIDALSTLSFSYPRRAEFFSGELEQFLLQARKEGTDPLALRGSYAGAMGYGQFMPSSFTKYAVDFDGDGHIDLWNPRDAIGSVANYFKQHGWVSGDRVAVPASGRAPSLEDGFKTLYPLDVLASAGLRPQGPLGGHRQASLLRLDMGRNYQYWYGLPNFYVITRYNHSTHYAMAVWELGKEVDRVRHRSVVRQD"}, "MltF": {"biological_target": "MltF (P. aeruginosa PAO1, UniProt Q9HXN1 33-490)", "sequence (Q9HXN1 33-490)": "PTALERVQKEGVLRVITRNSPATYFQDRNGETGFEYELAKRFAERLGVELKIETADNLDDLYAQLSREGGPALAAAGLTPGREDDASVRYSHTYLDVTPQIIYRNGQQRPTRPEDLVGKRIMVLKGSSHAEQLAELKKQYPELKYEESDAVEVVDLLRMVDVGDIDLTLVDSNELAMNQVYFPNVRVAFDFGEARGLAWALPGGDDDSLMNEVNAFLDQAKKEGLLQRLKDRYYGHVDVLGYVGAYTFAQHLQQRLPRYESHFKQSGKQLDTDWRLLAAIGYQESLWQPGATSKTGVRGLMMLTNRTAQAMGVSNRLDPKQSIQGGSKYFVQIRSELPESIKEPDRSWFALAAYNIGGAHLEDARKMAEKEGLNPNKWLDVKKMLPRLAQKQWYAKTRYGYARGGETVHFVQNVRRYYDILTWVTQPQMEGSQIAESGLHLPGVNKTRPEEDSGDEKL"}, "SltB2": {"biological_target": "T3, SltB2 (P. aeruginosa PAO1, UniProt Q9I4G6 1-398)", "T3 sequence (looked up)": "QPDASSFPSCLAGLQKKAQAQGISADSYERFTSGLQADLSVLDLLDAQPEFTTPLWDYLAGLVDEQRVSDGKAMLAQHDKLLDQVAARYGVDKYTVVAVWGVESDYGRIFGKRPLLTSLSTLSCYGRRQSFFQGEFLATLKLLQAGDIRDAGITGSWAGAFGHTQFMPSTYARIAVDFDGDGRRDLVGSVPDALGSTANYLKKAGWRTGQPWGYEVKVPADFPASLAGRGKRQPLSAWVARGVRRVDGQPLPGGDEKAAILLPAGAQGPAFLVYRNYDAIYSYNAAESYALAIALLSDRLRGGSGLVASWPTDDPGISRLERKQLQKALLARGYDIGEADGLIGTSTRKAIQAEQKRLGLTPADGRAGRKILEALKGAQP"}, "MltD": {"biological_target": "T4, MltD (P. aeruginosa PAO1, UniProt Q9I2T2 1-534)", "T4 sequence (looked up)": "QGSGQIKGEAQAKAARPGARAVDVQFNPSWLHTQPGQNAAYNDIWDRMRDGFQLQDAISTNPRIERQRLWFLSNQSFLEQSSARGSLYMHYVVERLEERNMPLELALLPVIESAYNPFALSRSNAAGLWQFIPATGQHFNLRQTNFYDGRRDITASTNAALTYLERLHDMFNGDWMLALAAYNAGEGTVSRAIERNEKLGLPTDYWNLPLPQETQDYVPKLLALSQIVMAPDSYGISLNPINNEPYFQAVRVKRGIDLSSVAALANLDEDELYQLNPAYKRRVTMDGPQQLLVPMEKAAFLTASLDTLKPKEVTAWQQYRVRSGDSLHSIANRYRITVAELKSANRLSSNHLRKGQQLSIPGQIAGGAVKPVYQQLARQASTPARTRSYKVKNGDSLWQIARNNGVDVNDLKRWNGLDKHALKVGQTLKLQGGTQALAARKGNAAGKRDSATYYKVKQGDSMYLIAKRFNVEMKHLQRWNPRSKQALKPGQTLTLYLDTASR"}, "PBP4": {"biological_target": "T5, PBP4 (P. aeruginosa PAO1, UniProt Q9HZG1 1-476)", "T5 sequence (looked up)": "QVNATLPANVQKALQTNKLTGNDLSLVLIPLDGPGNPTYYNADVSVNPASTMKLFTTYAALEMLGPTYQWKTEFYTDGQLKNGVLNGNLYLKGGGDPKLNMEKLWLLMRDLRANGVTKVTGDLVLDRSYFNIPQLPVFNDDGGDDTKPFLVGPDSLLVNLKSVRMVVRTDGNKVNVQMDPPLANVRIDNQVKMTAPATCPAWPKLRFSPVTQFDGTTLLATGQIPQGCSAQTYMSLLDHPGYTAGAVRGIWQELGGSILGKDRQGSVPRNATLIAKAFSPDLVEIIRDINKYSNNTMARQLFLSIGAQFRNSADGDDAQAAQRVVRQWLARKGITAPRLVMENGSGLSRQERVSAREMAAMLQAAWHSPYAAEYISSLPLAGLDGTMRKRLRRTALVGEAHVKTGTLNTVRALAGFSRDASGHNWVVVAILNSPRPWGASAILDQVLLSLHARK"}, "TypA": {"biological_target": "T6, TypA (P. aeruginosa PAO1, UniProt Q9HU67 1-605)", "T6 sequence (looked up)": "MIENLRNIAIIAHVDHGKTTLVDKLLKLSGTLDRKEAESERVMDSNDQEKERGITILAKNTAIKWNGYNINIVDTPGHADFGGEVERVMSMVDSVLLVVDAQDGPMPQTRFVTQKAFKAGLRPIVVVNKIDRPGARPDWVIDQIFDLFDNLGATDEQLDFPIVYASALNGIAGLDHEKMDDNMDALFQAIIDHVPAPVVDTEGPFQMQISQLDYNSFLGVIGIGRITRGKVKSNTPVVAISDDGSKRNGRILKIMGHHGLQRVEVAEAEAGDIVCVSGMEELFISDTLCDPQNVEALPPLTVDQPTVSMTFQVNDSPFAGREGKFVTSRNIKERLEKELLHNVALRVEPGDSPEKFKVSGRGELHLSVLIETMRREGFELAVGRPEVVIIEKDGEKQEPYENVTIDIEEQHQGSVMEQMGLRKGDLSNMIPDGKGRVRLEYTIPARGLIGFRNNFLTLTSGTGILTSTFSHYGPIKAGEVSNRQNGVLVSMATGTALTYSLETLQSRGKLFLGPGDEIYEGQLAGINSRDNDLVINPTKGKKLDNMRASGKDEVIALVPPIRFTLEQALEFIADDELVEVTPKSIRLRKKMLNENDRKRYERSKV"}, "MltF2": {"biological_target": "T7, MltF2 (P. aeruginosa PAO1, UniProt Q9HZY1 1-476)", "T7 sequence (looked up)": "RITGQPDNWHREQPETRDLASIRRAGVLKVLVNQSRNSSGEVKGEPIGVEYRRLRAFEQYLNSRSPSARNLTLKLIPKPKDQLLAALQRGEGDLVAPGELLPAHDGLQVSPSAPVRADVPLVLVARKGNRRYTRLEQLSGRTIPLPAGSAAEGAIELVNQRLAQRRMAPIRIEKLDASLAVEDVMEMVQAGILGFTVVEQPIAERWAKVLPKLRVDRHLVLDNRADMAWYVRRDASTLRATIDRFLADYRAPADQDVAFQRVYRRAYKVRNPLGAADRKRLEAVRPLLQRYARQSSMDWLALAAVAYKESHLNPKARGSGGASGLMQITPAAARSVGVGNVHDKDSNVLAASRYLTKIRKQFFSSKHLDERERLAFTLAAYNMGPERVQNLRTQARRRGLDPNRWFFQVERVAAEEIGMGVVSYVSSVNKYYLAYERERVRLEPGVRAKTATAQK"}},
  "data": [
    {"binder": "RlpA-Δ32, fluorescently labeled (domain or fragment, amine reactive RED-NHS dye, source: E. coli BL21-star (DE3), purified (Ni-NTA), labelled with RED-NHS dye) PQQPARQAGISGPGDYSRPHRDGAPWWDVDVSRIPDAVPMPHNGSVKANPYTVLGKTYYPMNDARAYRMVGTASWYGTKFHGQATANGETYDLYGMTAAHKTLPLPSYVRVTNLDNGKSVIVRVNDRGPFYSDRVIDLSFAAAKKLGYAETGTARVKVEGIDPVQWWAQRGRPAPMVLAQPKQAVAQAAPAAAQTQAVAMAQPIETYTPPPAQHAAAVLPVQIDSKKNASLPADGLYLQVGAFANPDAAELLKAKLSGVTAAPVFISSVVRNQQILHRVRLGPIGSADEVSRTQDSIRVANLGQPTLVRPD", "values": [
      {"measurement": "Kd", "setting": "MltA", "value": 67, "unit": "nM"},
      {"measurement": "Kd", "setting": "PBP1a", "value": 92, "unit": "nM"},
      {"measurement": "Kd", "setting": "MltB", "value": 96, "unit": "nM"},
      {"measurement": "Kd", "setting": "MltF", "value": 101, "unit": "nM"},
      {"measurement": "Kd", "setting": "SltB2", "value": 110, "unit": "nM"},
      {"measurement": "Kd", "setting": "MltD", "value": 240, "unit": "nM"},
      {"measurement": "Kd", "setting": "PBP4", "value": 550, "unit": "nM"},
      {"measurement": "Kd", "setting": "TypA", "value": 1000, "unit": "nM"},
      {"measurement": "Kd", "setting": "MltF2", "value": 12, "unit": "nM"}
    ]}
  ]
}
